Data reported in patent US20190002500A1, “NOVEL a4B7 PEPTIDE DIMER ANTAGONISTS” (Protagonist Therapeutics, Inc., priority 2013, published 2019).
Where a SMILES comes first, the peptide text is derived from it. Bridges are numbered along the chain shown (N, C = ends). Where no end group is shown, it is not given here. [ ]: non-standard residue; d: D form. NMeR = CN[C@@H](CCCNC(=N)N)C(=O)O; Pen = CC(C)(S)[C@H](N)C(=O)O

Key:
FIG. 3 = assay: FIG. 3
Text: Table printed on a drawing sheet, FIG. 3
First reader's note: The sequence is split into one residue per column (positions 4-11 plus one unnumbered column), and SEQ ID 39 is printed twice.

[1] = Simulated Intestinal Fluid (SIF) Stability Assay; assay type: in vitro ADME; conditions: for stability in simulated intestinal fluids (SIF): substitution of Cys with Pen, compared to SEQ ID NO: 46 with Cys
Description: Simulated Intestinal Fluid (SIF) Stability Assay
Studies were carried out in simulated intestinal fluid (SIF) to evaluate gastric stability of the dimer molecules of the instant invention. SIF was prepared by adding 6.8 g of monobasic potassium phosphate and 10.0 g of pancreatin to 1.0 L of water. After dissolution, the pH was adjusted to 6.8 using NaOH. DMSO stocks (2 mM) were first prepared for the test compounds. Aliquots of the DMSO solutions were dosed into 6 individual tubes, each containing 0.5 mL of SIF, which had been pre-warmed to 37° C.
The final test compound concentration was 20 μM. The vials were kept in a benchtop Thermomixer® for the duration of the experiment. At each timepoint (0, 5, 10, 20, 40, and 60 minutes), 1.0 mL of acetonitrile containing 1% formic acid was added to one vial to terminate the reaction. Samples were stored at 4° C. until the end of the experiment. After the final timepoint was sampled, the tubes were mixed and then centrifuged at 3,000 rpm for 10 minutes. Aliquots of the supernatant were removed, diluted 1:1 into distilled water containing internal standard, and analyzed by LCMS/MS. Percent remaining at each timepoint was calculated based on the peak area response ratio of test to compound to internal standard. Time 0 was set to 100%, and all later timepoints were calculated relative to time 0. Half-lives were calculated by fitting to a first-order exponential decay equation using Graphpad. A small sampling of the results of these studies is provided and discussed in connection FIG. 3, above.

Row | Compound | SIF Stability (Half-Life, Min) (FIG. 3) [min] | stability in simulated intestinal fluids (SIF) [1] | other results
1 | CC(=O)N[C@H]1CSSC[C@@H](C(N)=O)NC(=O)[C@H](CC(C)C)NC(=O)[C@H]([C@@H](C)O)NC(=O)[C@H](CC(=O)O)NC(=O)[C@H](CO)NC(=O)[C@H](CCCNC(=N)N)NC1=O [compound 39, Ac-C R S D T L C-NH2] (Ac-CRSDTLC-NH2; disulfide 1-7) | <1 |  | 
2 | SEQ ID NO: 46: integrin antagonist homodimer of monomer subunit SEQ ID NO: 46 (Cys, N-terminally dimerized); N(alpha)Methylated and non-methylated variations (CRSDTLC; disulfide 1-7; not fully specified (residue 2); also: homodimer linked at N-termini) [listing 1 of 2 here] | 73 |  | 
3 | SEQ ID NO: 46: integrin antagonist homodimer of monomer subunit SEQ ID NO: 46 (Cys, N-terminally dimerized); N(alpha)Methylated and non-methylated variations (CRSDTLC; disulfide 1-7; not fully specified (residue 2); also: homodimer linked at N-termini) [listing 2 of 2 here] |  |  | half-life in SIF ([1]; substitution of arginine with N-Me-Arg, N(alpha)Methylated vs non-methylated variation): increased half-life substantially
4 | SEQ ID NO: 55: integrin antagonist homodimer of monomer subunit SEQ ID NO: 55, Cys substituted with Penicillamine (Pen) (C[NMeR]SDTL[Pen][dK]; disulfide 1-7; also: homodimer, link not given here) |  | increased stability significantly | 
5 | SEQ ID NO: 74: integrin antagonist homodimer of monomer subunit SEQ ID NO: 74, Cys substituted with Penicillamine (Pen) (C[NMeR]SDTL[Pen]E[dK]; disulfide 1-7; also: homodimer, link not given here) |  | increased stability significantly | 
